Results from patent publication US20180088134A1.

Columns and labels:
[1] = target: non-mutated human leptin (human) (UniProt P41159); test: ELISA, plate-bound leptin receptor-Fc; sample 9, blood donor serum/plasma DO-2226
[2] = target: non-mutated human leptin (human) (UniProt P41159); test: ELISA, plate-bound leptin receptor-Fc; sample 4, purified recombinant leptin
[3] = target: non-mutated human leptin (human) (UniProt P41159); test: ELISA, plate-bound leptin receptor-Fc; sample 7, WHO standard NIBSC 97/594, nominal 6 ng/ml
[4] = target: non-mutated human leptin (human) (UniProt P41159); test: receptor-Fc ELISA value divided by anti-leptin antibody ELISA value; sample 1, HEK293 supernatant
[5] = target: non-mutated human leptin (human) (UniProt P41159); test: receptor-Fc ELISA value divided by anti-leptin antibody ELISA value; sample 10, blood donor serum/plasma
[6] = target: non-mutated human leptin (human) (UniProt P41159); test: receptor-Fc ELISA value divided by anti-leptin antibody ELISA value; sample 9, blood donor serum/plasma
[7] = target: non-mutated human leptin (human) (UniProt P41159); test: receptor-Fc ELISA value divided by anti-leptin antibody ELISA value; sample 12, blood donor serum/plasma
[8] = target: non-mutated human leptin (human) (UniProt P41159); test: ELISA, plate-bound leptin receptor-Fc; sample 6, WHO standard NIBSC 97/594, nominal 2 ng/ml
[9] = target: non-mutated human leptin (human) (UniProt P41159); test: receptor-Fc ELISA value divided by anti-leptin antibody ELISA value; sample 11, blood donor serum/plasma
[10] = target: non-mutated human leptin (human) (UniProt P41159); test: ELISA, plate-bound leptin receptor-Fc; sample 8, blood donor serum/plasma CS-2
[11] = target: non-mutated human leptin (human) (UniProt P41159); test: ELISA, plate-bound leptin receptor-Fc, detection with polyclonal anti-leptin; sample 1, HEK293 supernatant
[12] = target: non-mutated human leptin (human) (UniProt P41159); test: receptor-Fc ELISA value divided by anti-leptin antibody ELISA value; WHO standard 2 ng/ml
[13] = target: non-mutated human leptin (human) (UniProt P41159); test: ELISA, plate-bound leptin receptor-Fc; sample 11, blood donor serum/plasma IDB-8960
[14] = target: non-mutated human leptin (human) (UniProt P41159); test: receptor-Fc ELISA value divided by anti-leptin antibody ELISA value; WHO standard 6 ng/ml
[15] = target: non-mutated human leptin (human) (UniProt P41159); test: ELISA, plate-bound leptin receptor-Fc; sample 12, blood donor serum/plasma BB-3935
[16] = target: non-mutated human leptin (human) (UniProt P41159); test: receptor-Fc ELISA value divided by anti-leptin antibody ELISA value; sample 8, blood donor serum/plasma
[17] = target: non-mutated human leptin (human) (UniProt P41159); test: ELISA, plate-bound leptin receptor-Fc; sample 10, blood donor serum/plasma IDB-883-

Sequence of UniProt P41159 (P41159 22-167, change not shown): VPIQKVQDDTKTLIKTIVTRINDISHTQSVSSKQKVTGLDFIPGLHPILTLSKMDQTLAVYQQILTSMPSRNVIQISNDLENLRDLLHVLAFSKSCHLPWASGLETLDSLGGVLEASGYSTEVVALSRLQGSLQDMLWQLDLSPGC

measured value functional leptin (concentration read from standard curve) [1]: 4.61 ng/mL
measured value functional leptin (concentration read from standard curve) [2]: 278 µg/mL
measured value functional leptin (concentration read from standard curve) [3]: 6.05 ng/mL
quotient of functional leptin and total leptin [4]: 0.85
quotient of functional leptin and total leptin [5]: 0.87
quotient of functional leptin and total leptin [6]: 0.91
quotient of functional leptin and total leptin [7]: 0.98
measured value functional leptin (concentration read from standard curve) [8]: 1.83 ng/mL
quotient of functional leptin and total leptin [9]: 0.96
measured value functional leptin (concentration read from standard curve) [10]: 2.81 ng/mL
measured value functional leptin (concentration read from standard curve) [11]: 490 ng/mL
quotient of functional leptin and total leptin [12]: 0.99
measured value functional leptin (concentration read from standard curve) [13]: 24 ng/mL
quotient of functional leptin and total leptin [14]: 0.99
measured value functional leptin (concentration read from standard curve) [15]: 34.1 ng/mL
quotient of functional leptin and total leptin [16]: 1.14
measured value functional leptin (concentration read from standard curve) [17]: 7.25 ng/mL
Substance: Recombinant Human Leptin R Fc Chimera, Catalog Number 389-LR/CF, R & D Systems (amino acid sequence Thr20-Asp839 of the human leptin receptor) (from UniProt P48357 20-839) (Fc fusion)
